Article PMC9838217, “Structure of SALL4 zinc finger domain reveals link between AT-rich DNA binding and Okihiro syndrome”

What was measured:
Conditions in all cases: protein: recombinant; tags: His6-GST removed with 3C protease; label: DY681
SALL4 ZFC4 I897S+V925S = target: T1, SALL4 ZFC4 I897S+V925S (Mus musculus, UniProt Q8BX22 870-940, I897S;V925S); assay: EMSA; apparent; text gives 5.0; poly(dI-dC); EMSA: 68.1 nM DY681-dsDNA, 20 mM HEPES pH 7.5, 150 mM K acetate, 5 mM Mg acetate, 10 ng/ul poly(dI-dC), 30 min on ice; 4% native PAGE, 0.5x TBE, 4 C
T1 sequence: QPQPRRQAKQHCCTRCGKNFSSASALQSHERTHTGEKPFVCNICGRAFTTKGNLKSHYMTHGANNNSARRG

SALL4 ZFC4 R900W = target: T2, SALL4 ZFC4 R900W (Mus musculus, UniProt Q8BX22 870-940, R900W); assay: EMSA; apparent; poly(dI-dC); EMSA: 68.1 nM DY681-dsDNA, 20 mM HEPES pH 7.5, 150 mM K acetate, 5 mM Mg acetate, 10 ng/ul poly(dI-dC), 30 min on ice; 4% native PAGE, 0.5x TBE, 4 C
T2 sequence: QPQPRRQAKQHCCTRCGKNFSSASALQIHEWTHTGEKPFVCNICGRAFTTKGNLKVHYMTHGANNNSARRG

SALL4 ZFC4 I897S = target: T3, SALL4 ZFC4 I897S (Mus musculus, UniProt Q8BX22 870-940, I897S); assay: as above
T3 sequence: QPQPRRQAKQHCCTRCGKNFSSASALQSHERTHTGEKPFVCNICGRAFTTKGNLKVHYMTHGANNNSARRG

SALL4 ZFC4 V925S = target: T4, SALL4 ZFC4 V925S (Mus musculus, UniProt Q8BX22 870-940, V925S); assay: as above
T4 sequence: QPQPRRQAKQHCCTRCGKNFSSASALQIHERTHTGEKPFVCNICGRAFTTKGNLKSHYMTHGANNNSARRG

B1: EMSA AT-rich probe (dsDNA)
DNA 1: AAAAAATATTAAAAA
DNA 2: TTTTTAATATTTTTT
Kd (SALL4 ZFC4 I897S+V925S): 5.08 µM | Kd (SALL4 ZFC4 R900W): 23 µM | Kd (SALL4 ZFC4 I897S): 4.8 µM | Kd (SALL4 ZFC4 V925S): 0.91 µM
